These results are taken from publication PMC11480449, “Adaptive laboratory evolution recruits the promiscuity of succinate semialdehyde dehydrogenase to repair different metabolic deficiencies” (Nature Communications, 2024).

By Km is commonly meant the concentration of substrate that gives half-maximal velocity. Usually kcat stands for the maximal rate divided by the concentration of active sites. Broadly, the kcat/Km is the turnover number divided by the Michaelis constant.

Data set [1] concerns the target T1, Sad (NAD(P)+-dependent succinate semialdehyde dehydrogenase, SSADH) (Escherichia coli, UniProt P76149, Q262R).
T1 construct: dimeric on size exclusion
The data set is described as follows: NADH formation at […] nm, substrate-inhibition fit. It is filed as biochemical. Conditions: 1 mM NAD+, 75 mM HEPES pH 8.0, 37 °C.

The target of data set [2] is T2, Sad (NAD(P)+-dependent succinate semialdehyde dehydrogenase, SSADH) (Escherichia coli, UniProt P76149).
T2 construct: dimeric on size exclusion
The data set can be described thus: NADH formation at […] nm, substrate-inhibition fit. Type of data set: biochemical. Conditions: 1 mM NAD+, 75 mM HEPES pH 8.0, 37 °C.

The target in data set [3] is T2, Sad (NAD(P)+-dependent succinate semialdehyde dehydrogenase, SSADH). The data set is described as follows: X-ray crystallography. It is filed as binding.
The target of data set [4] is T3, ThrA (bifunctional aspartokinase (AK)/homoserine dehydrogenase (HDH) 1) (Escherichia coli, UniProt P00561).
T3 sequence (P00561 1-820): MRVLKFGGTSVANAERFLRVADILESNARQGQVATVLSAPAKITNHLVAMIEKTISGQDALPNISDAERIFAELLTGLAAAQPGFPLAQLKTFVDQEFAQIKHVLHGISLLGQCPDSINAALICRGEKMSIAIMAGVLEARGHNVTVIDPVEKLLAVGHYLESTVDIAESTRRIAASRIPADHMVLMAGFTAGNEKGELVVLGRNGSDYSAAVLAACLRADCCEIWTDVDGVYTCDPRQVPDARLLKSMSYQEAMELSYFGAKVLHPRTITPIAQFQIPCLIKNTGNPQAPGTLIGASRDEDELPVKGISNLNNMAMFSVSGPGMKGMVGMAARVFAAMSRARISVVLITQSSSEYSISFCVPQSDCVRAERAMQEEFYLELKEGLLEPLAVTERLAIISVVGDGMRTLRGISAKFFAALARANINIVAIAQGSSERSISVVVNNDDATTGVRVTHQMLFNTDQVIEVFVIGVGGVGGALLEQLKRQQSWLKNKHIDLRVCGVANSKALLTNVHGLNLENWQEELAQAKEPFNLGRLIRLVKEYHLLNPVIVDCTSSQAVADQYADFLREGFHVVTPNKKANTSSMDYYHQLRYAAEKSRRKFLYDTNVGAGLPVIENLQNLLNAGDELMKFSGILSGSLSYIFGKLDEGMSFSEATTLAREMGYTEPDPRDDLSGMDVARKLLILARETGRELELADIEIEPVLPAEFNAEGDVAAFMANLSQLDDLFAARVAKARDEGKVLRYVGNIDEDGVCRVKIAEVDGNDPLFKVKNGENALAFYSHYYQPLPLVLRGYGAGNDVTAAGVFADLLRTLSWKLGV
The data set is described as follows: homoserine dehydrogenase, NADPH consumption at […] nm. Type of data set: biochemical. Conditions: 0.2 mM NADPH, 1 mM substrate, 100 mM KCl, pH 8.0, 37 °C.

The target of data set [5] is T1, Sad (NAD(P)+-dependent succinate semialdehyde dehydrogenase, SSADH). The data set can be described thus: X-ray crystallography. It is filed as binding. Conditions: 5 mM NAD+, 1 mM TCEP.
Data set [6] concerns the target T3, ThrA (bifunctional aspartokinase (AK)/homoserine dehydrogenase (HDH) 1). The data set can be described thus: aspartate kinase, PK/LDH-coupled, NADH at […] nm. It is filed as biochemical. Conditions: 4 mM ATP, 5 mM L-aspartate, 5 mM MgCl2, pH 8.0, 37 °C.
Substrate in data set [7]: O=CCCC(=O)O
The data set is described as follows: purified protein. Type of data set: biochemical, Escherichia coli. Conditions: 75 mM HEPES pH 8.0, 37 °C.

Substrate in data set [8]: O=C[C@H](O)COP(=O)(O)O
The data set is described as follows: purified protein. Type of data set: biochemical, Escherichia coli. Conditions: 1 mM NAD+, 75 mM HEPES pH 8.0, 37 °C.

Substrate in data set [9]: O=C[C@H](O)[C@H](O)COP(=O)(O)O
The data set is described as follows: purified protein. Type of data set: biochemical, Escherichia coli. Conditions: 1 mM NAD+, 75 mM HEPES pH 8.0, 37 °C.

Data set [10] deals with the molecule itself. The data set can be described thus: SEC; HiLoad 16/600 Superdex 200 pg, 20 mM HEPES-KOH, 50 mM KCl, pH 7.5; preparative step after affinity purification, before crystallisation. A general note: In gel filtration, larger molecules generally elute earlier.

`O=CCCC(=O)O` [succinate semialdehyde]: the “App. Ki” value in data set [1] was 0.5 ± 0.1 mM; in [2] it was 0.3 ± 0.1 mM. In data set [3] (covalent, bound to C268, NAD+ present, crystal soaked with 5 mM SSA), the X-ray crystallography result was “the latter is covalently bound to C268”.
On to `O=C[C@H](O)[C@H](O)COP(=O)(O)O` [erythrose 4-phosphate], for which the “App. Ki” value in [1] amounted to 7.4 ± 3.3 mM.
For the molecule `N[C@@H](CC=O)C(=O)O` [L-aspartic 4-semialdehyde], the “homoserine dehydrogenase, NADPH consumption at 340 nm” value in data set [4] is given as “Homoserine dehydrogenase activities of ThrA variants were determined”.
`O=C[C@H](O)COP(=O)(O)O` [glyceraldehyde 3-phosphate]: in [1], the “App. Ki” value stood at 1.4 ± 0.3 mM.
On to `NC(=O)c1ccc[n+]([C@@H]2O[C@H](COP(=O)(O)OP(=O)(O)OC[C@H]3O[C@@H](n4cnc5c(N)ncnc54)[C@H](O)[C@@H]3O)[C@@H](O)[C@H]2O)c1` [NAD^+], for which the X-ray crystallography entry in [5] is “crystal structures of both Sad WT and Q262R variants with bound NAD^+”; in data set [3] (5 mM NAD+) it was “crystal structures of both Sad WT and Q262R variants with bound NAD^+”.
With `N[C@@H](CC(=O)O)C(=O)O` [L-aspartate], in data set [6], the “aspartate kinase, PK/LDH-coupled, NADH at 340 nm” value is “Aspartate kinase activities of ThrA variants were determined”.

B1: Sad (NAD(P)+-dependent succinate semialdehyde dehydrogenase, SSADH) (Escherichia coli K-12) (protein)
chain: MTITPATHAISINPATGEQLSVLPWAGADDIENALQLAAAGFRDWRETNIDYRAEKLRDIGKALRARSEEMAQMITREMGKPINQARAEVAKSANLCDWYAEHGPAMLKAEPTLVENQQAVIEYRPLGTILAIMPWNFPLWQVMRGAVPIILAGNGYLLKHAPNVMGCAQLIAQVFKDAGIPQGVYGWLNADNDGVSQMIKDSRIAAVTVTGSVRAGAAIGAQAGAALKKCVLELGGSDPFIVLNDADLELAVKAAVAGRYQNTGQVCAAAKRFIIEEGIASAFTERFVAAAAALKMGDPRDEENALGPMARFDLRDELHHQVEKTLAQGARLLLGGEKMAGAGNYYPPTVLANVTPEMTAFREEMFGPVAAITIAKDAEHALELANDSEFGLSATIFTTDETQARQMAARLECGGVFINGYCASDARVAFGGVKKSGFGRELSHFGLHEFCNIQTVWKDRI
notes: dimeric on size exclusion
In the case of B1, in the data set “purified protein [7]” (1 mM NAD+), the Km was determined as 11 ± 1 µM, the kcat is 85 ± 3 s⁻¹ and the kcat/Km worked out at 7.4e+06 M⁻¹ s⁻¹. Further, in “purified protein [8]”, the Michaelis constant (Km) is reported as 1,106 ± 92 μM, the kcat was found to be 3.1 ± 0.2 s⁻¹ and the kcat/Km is 2800 M⁻¹ s⁻¹. Also, in the data set “purified protein [9]”, the Km was 2,102 ± 328 μM, the kcat was 1.1 ± 0.1 s⁻¹ and the kcat/Km worked out at 530 M⁻¹ s⁻¹.

B2: Succinate semialdehyde dehydrogenase Sad, Q262R variant (enzyme, Escherichia coli)
chain: MTITPATHAISINPATGEQLSVLPWAGADDIENALQLAAAGFRDWRETNIDYRAEKLRDIGKALRARSEEMAQMITREMGKPINQARAEVAKSANLCDWYAEHGPAMLKAEPTLVENQQAVIEYRPLGTILAIMPWNFPLWQVMRGAVPIILAGNGYLLKHAPNVMGCAQLIAQVFKDAGIPQGVYGWLNADNDGVSQMIKDSRIAAVTVTGSVRAGAAIGAQAGAALKKCVLELGGSDPFIVLNDADLELAVKAAVAGRYRNTGQVCAAAKRFIIEEGIASAFTERFVAAAAALKMGDPRDEENALGPMARFDLRDELHHQVEKTLAQGARLLLGGEKMAGAGNYYPPTVLANVTPEMTAFREEMFGPVAAITIAKDAEHALELANDSEFGLSATIFTTDETQARQMAARLECGGVFINGYCASDARVAFGGVKKSGFGRELSHFGLHEFCNIQTVWKDRI
notes: Succinate semialdehyde dehydrogenase Sad, E. coli, with Q262R (arose in adaptive laboratory evolution); also called Q262R mutant; source: E. coli BL21(DE3), purified (HisTrap, Superdex 200)
B2: in data set [10], the binding result was “binds”.

B3: Sad (NAD(P)+-dependent succinate semialdehyde dehydrogenase, SSADH) (Escherichia coli K-12; Q262R) (protein)
chain: MTITPATHAISINPATGEQLSVLPWAGADDIENALQLAAAGFRDWRETNIDYRAEKLRDIGKALRARSEEMAQMITREMGKPINQARAEVAKSANLCDWYAEHGPAMLKAEPTLVENQQAVIEYRPLGTILAIMPWNFPLWQVMRGAVPIILAGNGYLLKHAPNVMGCAQLIAQVFKDAGIPQGVYGWLNADNDGVSQMIKDSRIAAVTVTGSVRAGAAIGAQAGAALKKCVLELGGSDPFIVLNDADLELAVKAAVAGRYRNTGQVCAAAKRFIIEEGIASAFTERFVAAAAALKMGDPRDEENALGPMARFDLRDELHHQVEKTLAQGARLLLGGEKMAGAGNYYPPTVLANVTPEMTAFREEMFGPVAAITIAKDAEHALELANDSEFGLSATIFTTDETQARQMAARLECGGVFINGYCASDARVAFGGVKKSGFGRELSHFGLHEFCNIQTVWKDRI
notes: dimeric on size exclusion
B3: in “purified protein [7]” (1 mM NAD+), the Km stood at 5 ± 1 µM, the kcat came out at 87 ± 4 s⁻¹ and the kcat/Km was determined as 1.9e+07 M⁻¹ s⁻¹. In addition, in the data set “purified protein [8]”, the Km came to 67 ± 9 µM, the kcat came out at 19 ± 1 s⁻¹ and the kcat/Km is 280000 M⁻¹ s⁻¹. Further, in “purified protein [9]”, the Km worked out at 28 ± 4 µM, the kcat was found to be 3 ± 0.1 s⁻¹ and the kcat/Km was found to be 110000 M⁻¹ s⁻¹.

B4: NAD(P)+-dependent succinate semialdehyde dehydrogenase of Escherichia coli (Sad), wild type (enzyme)
chain: MTITPATHAISINPATGEQLSVLPWAGADDIENALQLAAAGFRDWRETNIDYRAEKLRDIGKALRARSEEMAQMITREMGKPINQARAEVAKSANLCDWYAEHGPAMLKAEPTLVENQQAVIEYRPLGTILAIMPWNFPLWQVMRGAVPIILAGNGYLLKHAPNVMGCAQLIAQVFKDAGIPQGVYGWLNADNDGVSQMIKDSRIAAVTVTGSVRAGAAIGAQAGAALKKCVLELGGSDPFIVLNDADLELAVKAAVAGRYQNTGQVCAAAKRFIIEEGIASAFTERFVAAAAALKMGDPRDEENALGPMARFDLRDELHHQVEKTLAQGARLLLGGEKMAGAGNYYPPTVLANVTPEMTAFREEMFGPVAAITIAKDAEHALELANDSEFGLSATIFTTDETQARQMAARLECGGVFINGYCASDARVAFGGVKKSGFGRELSHFGLHEFCNIQTVWKDRI
notes: Succinate semialdehyde dehydrogenase Sad, E. coli; also called Sad WT; SSADH; source: E. coli BL21(DE3), purified (HisTrap, Superdex 200)
Regarding B4, in [10], the binding result is “binds”.

B5: GabD (NADP+-dependent SSADH) (Escherichia coli K-12) (protein)
chain: MKLNDSNLFRQQALINGEWLDANNGEAIDVTNPANGDKLGSVPKMGADETRAAIDAANRALPAWRALTAKERATILRNWFNLMMEHQDDLARLMTLEQGKPLAEAKGEISYAASFIEWFAEEGKRIYGDTIPGHQADKRLIVIKQPIGVTAAITPWNFPAAMITRKAGPALAAGCTMVLKPASQTPFSALALAELAIRAGVPAGVFNVVTGSAGAVGNELTSNPLVRKLSFTGSTEIGRQLMEQCAKDIKKVSLELGGNAPFIVFDDADLDKAVEGALASKFRNAGQTCVCANRLYVQDGVYDRFAEKLQQAVSKLHIGDGLDNGVTIGPLIDEKAVAKVEEHIADALEKGARVVCGGKAHERGGNFFQPTILVDVPANAKVSKEETFGPLAPLFRFKDEADVIAQANDTEFGLAAYFYARDLSRVFRVGEALEYGIVGINTGIISNEVAPFGGIKASGLGREGSKYGIEDYLEIKYMCIGL
For B5, in “purified protein [7]” (1 mM NADP+), the Km stood at 13 ± 1 µM, the kcat came out at 132 ± 2 s⁻¹ and the kcat/Km was found to be 1e+07 M⁻¹ s⁻¹.
